By EC50 is commonly meant the concentration giving half of the maximal effect. A lower EC50 goes with an effect from little substance. The term Kd denotes a measure of binding affinity in units of concentration. High values mean lower affinity, low ones higher affinity. In general, koff refers to a measure of how fast the partners let go of each other. The kon is the rate constant with which the complex forms. A higher kon goes with faster complex formation. Usually IC50 stands for the concentration that inhibits the measured activity by half. A high value points to a need for much substance. As usually defined, the EC50 (read off the curve) is the concentration at which the effect is half-maximal. A lower EC50 (read off the curve) goes with higher potency in that assay.

Consider 14 molecules from patent US20200255516A1 (JIANGSU HENGRUI MEDICINE, published 2020).

Residue numbers refer to the chain shown, from its start. Names and notes keep the numbering of the source.

First the molecules themselves.
B1: h1708-05 (antibody, human IgG4 S228P, kappa, V domains shown)
VH: EVQLVQSGAEVKKPGASVKVSCKASGYTFTNYWMHWVRQAPGQGLEWMGRIDPDSTGSKYNEKFKTRVTMTVDTSTSTVYMELSSLRSEDTAVYYCAREGAYGYYFDYWGQGTLVTVSS
VL: DIQMTQSPSSLSASVGDRVTITCRASENIYSYLAWYQQKPGKSPKLLIYNARTLAEGVPSRFSGSGSGTDFTLTISSLQPEDFATYYCQYHSGSPLPFGGGTKVEIKR
notes: also called humanized TIGIT antibody h1708-05
B2: h1708-06 (antibody, human IgG4 S228P, kappa, V domains shown)
VH: B1 VH with M48I, V79A
VL: B1 VL
notes: also called humanized TIGIT antibody h1708-06
B3: h1708-03 (antibody, human IgG4 S228P, kappa, V domains shown)
VH: B1 VH with M48I, V79A
VL: B1 VL with S43A
notes: also called humanized TIGIT antibody h1708-03
B4: h1708-02 (antibody, human IgG4 S228P, kappa, V domains shown)
VH: B1 VH
VL: B1 VL with S43A
notes: also called humanized TIGIT antibody h1708-02
B5: h1708-04 (antibody, human IgG4 S228P, kappa, V domains shown)
VH: B1 VH with V72R
VL: B1 VL
notes: also called humanized TIGIT antibody h1708-04
B6: h1708-01 (antibody, human IgG4 S228P, kappa, V domains shown)
VH: B1 VH with V72R
VL: B1 VL with S43A
notes: also called humanized TIGIT antibody h1708-01
B7: h1707-02 (antibody, human IgG4 S228P, kappa, V domains shown)
VH: EVQLVESGGGLVQPGGSLRLSCAASGFTFSDYHMYWVRQAPGKGLEWVAYISKGGISTYYPDTVKGRFTISRDNAKNSLYLQMSRLRAEDTAVYYCARQSSYDFAMDYWGRGTLVTVSS
VL: DIQMTQSPSFLSASVGDRVTITCKASQDVGTSVAWYQQKPGKAPKLLIYWASARHTGVPSRFSGSGSGTDFTLTISSLQPEDFATYYCQQYSSYPLTFGQGTKLEIKR
notes: also called humanized TIGIT antibody h1707-02
B8: h1709-10 (antibody, human IgG4 S228P, kappa, V domains shown)
VH: EVQLVQSGAEVKKPGASVKVSCKASGYTFTDYYMHWVRQAPGQGLEWMGLVYPYNDNTGYNRKFKGRVTMTVDTSTSTVYMELNSLRSEDTAVYYCARGGPSNWNYFDYWGQGTLVTVSS
VL: DIQMTQSPSSLSASVGDRVTITCKASQNVVTAVAWYQQKPGKSPKLLIYSASNRYTGVPDRFSGSGSGTDFTLTISSLQPEDFATYFCQQYTLYPLTFGGGTKVEIKR
notes: also called humanized TIGIT antibody h1709-10
B9: 10A7 hIgG4 (antibody, V domains shown)
VH: EVQLVESGGGLTQPGKSLKLSCEASGFTFSSFTMHWVRQSPGKGLEWVAFIRSGSGIVFYADAVRGRFTISRDNAKNLLFLQMNDLKSEDTAMYYCARRPLGHNTFDSWGQGTLVTVSS
VL: DIVMTQSPSSLAVSPGEKVTMTCKSSQSLYYSGVKENLLAWYQQKPGQSPKLLIYYASIRFTGVPDRFTGSGSGTDYTLTITSVQAEDMGQYFCQQGINNPLTFGDGTKLEIKR
B10: 22G2-H3Q (antibody, human IgG4 S228P, kappa, V domains shown)
VH: QVQLQESGPGLVKPSETLSLTCTVSGGSVSSGIYYWSWIRQPPGKGLEWIGYIYYSGSTNYNPSLKSRVTISVDTSKNQFSLKLSSVTAADTAVYYCARDYYVSGNYYNVDYYFFGVDVWGQGTTVTVSS
VL: EIVLTQSPATLSLSPGERATLSCRASQSVSSYLAWYQQKPGQAPRLLIYDASNRATGIPARFSGSGSGTDFTLTISSLEPEDFAVYYCQQRSNWPPLFTFGPGTKVDIKR
B11: ch1711 (antibody, V domains shown)
VH: QVQLQQSGTELVRPGTSVKMSCKASGYTFTNYWIGWAKQRPGHGLEWIGDIYPGGAYTNYNEKFKDKATLTADKSSSTAYMQFSSLTSEDSAIYYCTRGDYYDSSGRAMDYWGQGTSVTVSS
VL: DIVMSQSPSSLAVSVGEKVSMSCKSSQSLLYSRNQMNYLAWYQQKPGQSPKLLIYWTSTRESGVPDRFTGSGSGTDFTLTISSVKAEDLAVYYCQQYYSYPYTFGGGTKLEIK
notes: also called chimeric antibody corresponding to m1711
B12: h1711-01 (antibody, V domains shown)
VH: EVQLVQSGAEVKKPGSSVKVSCKASGGTFSNYWIGWVRQAPGQGLEWMGDIYPGGAYTNYNEKFKDRVTITADKSTSTAYMELSSLRSEDTAVYYCARGDYYDSSGRAMDYWGQGTLVTVSS
VL: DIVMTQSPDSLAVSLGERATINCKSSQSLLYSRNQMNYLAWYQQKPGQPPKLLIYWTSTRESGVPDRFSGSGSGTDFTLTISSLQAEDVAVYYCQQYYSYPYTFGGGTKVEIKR
B13: h1711-03 (antibody, human IgG4 S228P, kappa, V domains shown)
VH: B12 VH with G27Y, M48I
VL: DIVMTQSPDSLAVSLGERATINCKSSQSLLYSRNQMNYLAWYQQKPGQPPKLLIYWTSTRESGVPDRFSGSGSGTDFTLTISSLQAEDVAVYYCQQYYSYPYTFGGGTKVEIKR
B14: h1711-02 (antibody, human IgG4 S228P, kappa, V domains shown)
VH: B12 VH with M48I
VL: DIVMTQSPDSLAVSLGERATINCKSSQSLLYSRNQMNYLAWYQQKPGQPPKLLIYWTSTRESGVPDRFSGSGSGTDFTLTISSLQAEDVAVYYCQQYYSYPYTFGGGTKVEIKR

In the first assay the target is T1, TIGIT fusion protein with Fc or mFc tag (human, UniProt Q495A1 22-141).
T1 construct: extracellular domain; also called TIGIT-Fc; TIGIT-mFc
T1 sequence (looked up): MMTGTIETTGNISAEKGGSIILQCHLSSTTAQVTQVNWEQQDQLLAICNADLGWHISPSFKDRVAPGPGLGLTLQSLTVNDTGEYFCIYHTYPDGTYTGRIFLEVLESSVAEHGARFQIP
Kind of assay: HTRF blocking assay: TIGIT-Fc or TIGIT-mFc with biotinylated CD155 as the blocked ligand, ratio 665/620. On the technique in general: In TR-FRET formats the signal depends on donor and acceptor labels being close together.
For the molecule B1, the “IC50 (read off the curve)” value is ~1000 pM.
The same measure, in the same setting: the result for B2 reads ~1000 pM.
Still for that read-out and setting: the result for B3 reads ~1000 pM.
Still for that read-out and setting: the result for B4 reads ~1000 pM; that for B5, ~1000 pM.
As to B6, the “IC50 (read off the curve)” value is ~1000 pM.

The target in another assay is T2, Full-length human TIGIT on CHO cells overexpressing TIGIT (human, UniProt Q495A1 22-244).
T2 construct: also called TIGIT-CHO cells; CHO cells overexpressing human TIGIT
T2 sequence: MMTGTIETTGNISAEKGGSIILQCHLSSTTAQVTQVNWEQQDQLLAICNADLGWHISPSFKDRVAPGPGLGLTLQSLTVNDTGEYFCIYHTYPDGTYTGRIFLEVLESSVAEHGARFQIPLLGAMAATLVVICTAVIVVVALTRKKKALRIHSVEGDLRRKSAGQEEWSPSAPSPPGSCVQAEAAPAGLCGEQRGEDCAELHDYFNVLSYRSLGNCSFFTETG
Put plainly: cell ELISA on fixed CHO cells overexpressing human TIGIT.
In turn, B7 displayed an EC50 of 87.2 pM.
On the same count and under the same terms, the result for B5 reads 84.8 pM; that for B8, 56.8 pM.
Same read-out and setting: the result for B9 reads 109 pM.

In the next assay the target is T3, cynoTIGIT-mFc (fusion protein of cynoTIGIT extracellular domain and mouse IgG2a Fc fragment) (cynomolgus).
T3 construct: also called monkey TIGIT; cynomolgus TIGIT-mFc fusion protein
T3 sequence (chain, as listed by the source limits assumed): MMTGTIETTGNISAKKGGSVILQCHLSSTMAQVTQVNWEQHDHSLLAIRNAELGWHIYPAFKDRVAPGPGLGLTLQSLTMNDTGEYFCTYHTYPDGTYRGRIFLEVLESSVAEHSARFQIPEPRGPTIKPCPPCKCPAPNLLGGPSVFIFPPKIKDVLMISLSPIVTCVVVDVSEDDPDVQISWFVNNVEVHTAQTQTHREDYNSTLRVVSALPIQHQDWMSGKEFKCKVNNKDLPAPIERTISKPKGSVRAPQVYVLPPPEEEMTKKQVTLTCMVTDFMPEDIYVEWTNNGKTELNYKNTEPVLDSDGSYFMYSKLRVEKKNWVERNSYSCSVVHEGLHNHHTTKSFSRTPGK
Kind of assay: SPR (Biacore T200), antibody held by Fc affinity capture, cynoTIGIT-mFc in mobile phase, 1:1 Langmuir fit. For orientation: In SPR one partner is held on a chip, and binding of the other changes the refractive index at the surface.
For the molecule B5, the Kd was 285 pM, the koff was 0.000352 s⁻¹ and the kon is 1.24e+06 M⁻¹ s⁻¹.
The molecule B8 registered a Kd of 300 pM, a koff of 0.000415 s⁻¹ and a kon of 1.39e+06 M⁻¹ s⁻¹.
Molecule B10 registered a Kd of 166 pM, a koff of 0.000404 s⁻¹ and a kon of 2.44e+06 M⁻¹ s⁻¹.

For a further assay, the target named is T1, TIGIT fusion protein with Fc or mFc tag. Kind of assay: FACS blocking assay: TIGIT-mFc pre-incubated with the antibody, added to CHO cells overexpressing CD112 (blocked ligand), PE anti-mouse IgG, MFI.
On to B7, for which the “IC50 (read off the curve)” value was ~5000 pM.
With B5, the “IC50 (read off the curve)” value was ~5000 pM.
For B8, the “IC50 (read off the curve)” value was ~5000 pM.
As to B10, the “IC50 (read off the curve)” value is ~5000 pM.

For a further assay, the target named is T4, human TIGIT (Sinobiological Co., Ltd., Cat. 10917-H08-H) (human, UniProt Q495A1 22-141).
T4 construct: also called huTIGIT; TIGIT-His
T4 sequence (looked up): T1 sequence (looked up)
Kind of assay: SPR (Biacore), captured antibody, TIGIT-His as analyte.
The molecule B11 registered an equilibrium dissociation constant (Kd) of 249 pM, a koff of 0.000455 s⁻¹ and an on-rate constant (kon) of 1.83e+06 M⁻¹ s⁻¹.
On to B12, for which the affinity, expressed as Kd, was 1490 pM; the koff came out at 0.00209 s⁻¹; the kon stood at 1.4e+06 M⁻¹ s⁻¹.
For B13 the same measures were 556 pM, 0.000723 s⁻¹ and 1.3e+06 M⁻¹ s⁻¹.
For B14 the same measures were 1240 pM, 0.00171 s⁻¹ and 1.38e+06 M⁻¹ s⁻¹.

A further assay deals with T2, Full-length human TIGIT on CHO cells …. Kind of assay: FACS blocking assay on TIGIT-CHO cells; competitor CF633-labeled CD155-Fc at 2 ug/ml.
B7: the IC50 was found to be 482 pM.
The same measure, in the same setting: to B5 belongs 499 pM; to B8, 427 pM; to B9, 678 pM.

The target in a further assay is T3, cynoTIGIT-mFc (fusion protein of …). Kind of assay: ELISA: cynomolgus TIGIT-Fc or TIGIT-mFc captured by coated anti-Fc antibody, HRP secondary antibody, OD450. (In an ELISA, binding on a coated surface is turned into a signal by an enzyme label.)
As to B7, the binding result was “binds”.
For the molecule B8, the “EC50 (read off the curve)” value is ~100 pM.

The target in the next assay is T1, TIGIT fusion protein with Fc or mFc tag. Kind of assay: HTRF blocking assay: TIGIT-Fc or TIGIT-mFc with biotinylated CD155 as the blocked ligand, ratio 665/620. This is another data set of the same source.
Take B7: the “IC50 (read off the curve)” value is ~3000 pM.
The same measure, in the same setting: the result for B5 reads ~2000 pM; that for B8, ~3000 pM.

For a further assay the target is unchanged. Kind of assay: blocking cell ELISA: TIGIT-hFc or TIGIT-mFc (0.2 ug/ml) pre-mixed with the antibody, added to fixed CHO cells overexpressing CD155 (blocked ligand), OD450.
For B7, the “IC50 (read off the curve)” value is ~1000 pM.
On the same count and under the same terms, the result for B5 reads ~1000 pM; that for B8, ~1000 pM; that for B10, ~1000 pM.

The next assay has the same target. Kind of assay: ELISA: human TIGIT-Fc or TIGIT-mFc captured by coated anti-Fc antibody, HRP secondary antibody, OD450.
For the molecule B7, the half-maximal effective concentration (EC50 (read off the curve)) is ~100 pM.
The same measure, in the same setting: the result for B5 reads ~100 pM; that for B8, ~100 pM.
On the same count and under the same terms, to B9 belongs ~200 pM.

The target of another assay is T4, human TIGIT (Sinobiological Co., Ltd., …). Kind of assay: SPR (Biacore T200), antibody captured via Protein A, huTIGIT in mobile phase, 1:1 Langmuir fit.
B7 showed an equilibrium dissociation constant (Kd) of 108 pM, a koff of 0.000188 s⁻¹ and an association rate constant (kon) of 1.74e+06 M⁻¹ s⁻¹.
On the same counts, the results for B5 are 104 pM, 0.000183 s⁻¹ and 1.75e+06 M⁻¹ s⁻¹.
On to B8, for which the equilibrium dissociation constant (Kd) came out at 104 pM, the off-rate (koff) is 0.000259 s⁻¹ and the kon was 2.49e+06 M⁻¹ s⁻¹.
On the same counts, the results for B10 are 709 pM, 0.000379 s⁻¹ and 535000 M⁻¹ s⁻¹.

Another assay addresses T5, human TIGIT on SEB-activated human PBMC (human, UniProt Q495A1).
T5 construct: native, on the cell surface
T5 sequence (receptor chain, looked up): T2 sequence
Put plainly: flow cytometry on SEB-activated human PBMC, PE anti-human IgG, MFI.
In the case of B7, the “EC50 (read off the curve)” value is ~300 pM.
The same measure, in the same setting: to B5 belongs ~300 pM; to B8, ~300 pM.
